In patent US20260242419A1, “A CYCLIC PEPTIDE FOR TRAPPING INTERLEUKIN-1 BETA” (Merck Sharp & Dohme LLC, priority 2023, published 2026):
Starred links: 1 amine or outer side, 2 acyl side, 3 side chain; linkers in the order of their positions; H or OH if unused. Non-standard residues stand in square brackets, D forms with d. 3AzaPhe4AcPip = (2S)-3-[6-(4-acetylpiperazin-1-yl)-3-pyridyl]-2-amino-propanoic acid, CC(=O)N1CCN(c2ccc(C[C@H](N[*:1])C(=O)[*:2])cn2)CC1; Phe(4-(5-CO2H-2-pyrimidyl)) = N[C@@H](Cc1ccc(-c2ncc(C(=O)O)cn2)cc1)C(=O)O; Phe(4-(4-Ac-piperazinyl)) = CC(=O)N1CCN(c2ccc(C[C@H](N)C(=O)O)cc2)CC1; Trp(βS-Me,4-F) = C[C@@H](c1c[nH]c2cccc(F)c12)[C@H](N)C(=O)O; Bip(4'-COOH) = N[C@@H](Cc1ccc(-c2ccc(C(=O)O)cc2)cc1)C(=O)O; dPro(4R-Bzl(4-F)) = O=C(O)[C@H]1C[C@@H](Cc2ccc(F)cc2)CN1; Ala(pyrimidin-5-yl) = N[C@@H](Cc1cncnc1)C(=O)O; Phe(4-COOH) = N[C@@H](Cc1ccc(C(=O)O)cc1)C(=O)O; Pro(cis-4-F) = O=C(O)[C@@H]1C[C@H](F)CN1; 2Pal = N[C@@H](Cc1ccccn1)C(=O)O; 3Pal = N[C@@H](Cc1cccnc1)C(=O)O; 4Pal = N[C@@H](Cc1ccncc1)C(=O)O; Dab = NCC[C@H](N)C(=O)O; Aib = CC(C)(N)C(=O)O

B1: SEQ ID NO: 37 (peptide)
peptide: cyclo([Phe(4-(4-Ac-piperazinyl))][4Pal][Phe(4-COOH)]G[Pro(cis-4-F)][Trp(βS-Me,4-F)][Aib]EW[Aib][Ala(pyrimidin-5-yl)]Q[Dab]G[dPro(4R-Bzl(4-F))])
SMILES: CC(=O)N1CCN(c2ccc(C[C@@H]3NC(=O)[C@H]4C[C@@H](Cc5ccc(F)cc5)CN4C(=O)CNC(=O)[C@H](CCN)NC(=O)[C@H](CCC(N)=O)NC(=O)[C@H](Cc4cncnc4)NC(=O)C(C)(C)NC(=O)[C@H](Cc4c[nH]c5ccccc45)NC(=O)[C@H](CCC(=O)O)NC(=O)C(C)(C)NC(=O)[C@H]([C@@H](C)c4c[nH]c5cccc(F)c45)NC(=O)[C@@H]4C[C@H](F)CN4C(=O)CNC(=O)[C@H](Cc4ccc(C(=O)O)cc4)NC(=O)[C@H](Cc4ccncc4)NC3=O)cc2)CC1
B2: SEQ ID NO: 36 (peptide)
peptide: cyclo([Bip(4'-COOH)][4Pal][Phe(4-COOH)]G[Pro(cis-4-F)][Trp(βS-Me,4-F)][Aib]EW[Aib][2Pal]QSG[dPro(4R-Bzl(4-F))])
SMILES: C[C@@H](c1c[nH]c2cccc(F)c12)[C@@H]1NC(=O)[C@@H]2C[C@H](F)CN2C(=O)CNC(=O)[C@H](Cc2ccc(C(=O)O)cc2)NC(=O)[C@H](Cc2ccncc2)NC(=O)[C@H](Cc2ccc(-c3ccc(C(=O)O)cc3)cc2)NC(=O)[C@H]2C[C@@H](Cc3ccc(F)cc3)CN2C(=O)CNC(=O)[C@H](CO)NC(=O)[C@H](CCC(N)=O)NC(=O)[C@H](Cc2ccccn2)NC(=O)C(C)(C)NC(=O)[C@H](Cc2c[nH]c3ccccc23)NC(=O)[C@H](CCC(=O)O)NC(=O)C(C)(C)NC1=O
B3: SEQ ID NO: 4 (peptide)
peptide: cyclo([Bip(4'-COOH)][4Pal][Phe(4-COOH)]G[Pro(cis-4-F)][Trp(βS-Me,4-F)][Aib]EW[Aib][Ala(pyrimidin-5-yl)]Q[Dab]G[dPro(4R-Bzl(4-F))])
SMILES: C[C@@H](c1c[nH]c2cccc(F)c12)[C@@H]1NC(=O)[C@@H]2C[C@H](F)CN2C(=O)CNC(=O)[C@H](Cc2ccc(C(=O)O)cc2)NC(=O)[C@H](Cc2ccncc2)NC(=O)[C@H](Cc2ccc(-c3ccc(C(=O)O)cc3)cc2)NC(=O)[C@H]2C[C@@H](Cc3ccc(F)cc3)CN2C(=O)CNC(=O)[C@H](CCN)NC(=O)[C@H](CCC(N)=O)NC(=O)[C@H](Cc2cncnc2)NC(=O)C(C)(C)NC(=O)[C@H](Cc2c[nH]c3ccccc23)NC(=O)[C@H](CCC(=O)O)NC(=O)C(C)(C)NC1=O
B4: SEQ ID NO: 35 (peptide)
peptide: cyclo([Bip(4'-COOH)][4Pal][Phe(4-COOH)]G[Pro(cis-4-F)][Trp(βS-Me,4-F)][Aib]EW[Aib]FQRG[dPro(4R-Bzl(4-F))])
SMILES: C[C@@H](c1c[nH]c2cccc(F)c12)[C@@H]1NC(=O)[C@@H]2C[C@H](F)CN2C(=O)CNC(=O)[C@H](Cc2ccc(C(=O)O)cc2)NC(=O)[C@H](Cc2ccncc2)NC(=O)[C@H](Cc2ccc(-c3ccc(C(=O)O)cc3)cc2)NC(=O)[C@H]2C[C@@H](Cc3ccc(F)cc3)CN2C(=O)CNC(=O)[C@H](CCCNC(=N)N)NC(=O)[C@H](CCC(N)=O)NC(=O)[C@H](Cc2ccccc2)NC(=O)C(C)(C)NC(=O)[C@H](Cc2c[nH]c3ccccc23)NC(=O)[C@H](CCC(=O)O)NC(=O)C(C)(C)NC1=O
B5: SEQ ID NO: 39 (peptide)
peptide: cyclo([3AzaPhe4AcPip][4Pal][Phe(4-COOH)]G[Pro(cis-4-F)][Trp(βS-Me,4-F)][Aib]EW[Aib][Ala(pyrimidin-5-yl)]Q[Dab]G[dPro(4R-Bzl(4-F))])
SMILES: CC(=O)N1CCN(c2ccc(C[C@@H]3NC(=O)[C@H]4C[C@@H](Cc5ccc(F)cc5)CN4C(=O)CNC(=O)[C@H](CCN)NC(=O)[C@H](CCC(N)=O)NC(=O)[C@H](Cc4cncnc4)NC(=O)C(C)(C)NC(=O)[C@H](Cc4c[nH]c5ccccc45)NC(=O)[C@H](CCC(=O)O)NC(=O)C(C)(C)NC(=O)[C@H]([C@@H](C)c4c[nH]c5cccc(F)c45)NC(=O)[C@@H]4C[C@H](F)CN4C(=O)CNC(=O)[C@H](Cc4ccc(C(=O)O)cc4)NC(=O)[C@H](Cc4ccncc4)NC3=O)cn2)CC1
B6: SEQ ID NO: 38 (peptide)
peptide: cyclo([Phe(4-(5-CO2H-2-pyrimidyl))][4Pal][Phe(4-COOH)]G[Pro(cis-4-F)][Trp(βS-Me,4-F)][Aib]EW[Aib][Ala(pyrimidin-5-yl)]Q[Dab]G[dPro(4R-Bzl(4-F))])
SMILES: C[C@@H](c1c[nH]c2cccc(F)c12)[C@@H]1NC(=O)[C@@H]2C[C@H](F)CN2C(=O)CNC(=O)[C@H](Cc2ccc(C(=O)O)cc2)NC(=O)[C@H](Cc2ccncc2)NC(=O)[C@H](Cc2ccc(-c3ncc(C(=O)O)cn3)cc2)NC(=O)[C@H]2C[C@@H](Cc3ccc(F)cc3)CN2C(=O)CNC(=O)[C@H](CCN)NC(=O)[C@H](CCC(N)=O)NC(=O)[C@H](Cc2cncnc2)NC(=O)C(C)(C)NC(=O)[C@H](Cc2c[nH]c3ccccc23)NC(=O)[C@H](CCC(=O)O)NC(=O)C(C)(C)NC1=O
B7: SEQ ID NO: 33 (peptide)
peptide: cyclo([Bip(4'-COOH)][4Pal][Phe(4-COOH)]G[Pro(cis-4-F)][Trp(βS-Me,4-F)][Aib]EW[Aib]RQ[Dab]G[dPro(4R-Bzl(4-F))])
SMILES: C[C@@H](c1c[nH]c2cccc(F)c12)[C@@H]1NC(=O)[C@@H]2C[C@H](F)CN2C(=O)CNC(=O)[C@H](Cc2ccc(C(=O)O)cc2)NC(=O)[C@H](Cc2ccncc2)NC(=O)[C@H](Cc2ccc(-c3ccc(C(=O)O)cc3)cc2)NC(=O)[C@H]2C[C@@H](Cc3ccc(F)cc3)CN2C(=O)CNC(=O)[C@H](CCN)NC(=O)[C@H](CCC(N)=O)NC(=O)[C@H](CCCNC(=N)N)NC(=O)C(C)(C)NC(=O)[C@H](Cc2c[nH]c3ccccc23)NC(=O)[C@H](CCC(=O)O)NC(=O)C(C)(C)NC1=O
B8: SEQ ID NO: 34 (peptide)
peptide: cyclo([Bip(4'-COOH)][4Pal][Phe(4-COOH)]G[Pro(cis-4-F)][Trp(βS-Me,4-F)][Aib]EW[Aib][3Pal]QSG[dPro(4R-Bzl(4-F))])
SMILES: C[C@@H](c1c[nH]c2cccc(F)c12)[C@@H]1NC(=O)[C@@H]2C[C@H](F)CN2C(=O)CNC(=O)[C@H](Cc2ccc(C(=O)O)cc2)NC(=O)[C@H](Cc2ccncc2)NC(=O)[C@H](Cc2ccc(-c3ccc(C(=O)O)cc3)cc2)NC(=O)[C@H]2C[C@@H](Cc3ccc(F)cc3)CN2C(=O)CNC(=O)[C@H](CO)NC(=O)[C@H](CCC(N)=O)NC(=O)[C@H](Cc2cccnc2)NC(=O)C(C)(C)NC(=O)[C@H](Cc2c[nH]c3ccccc23)NC(=O)[C@H](CCC(=O)O)NC(=O)C(C)(C)NC1=O

Each binder was assayed against Recombinant human IL-1β (BioLegend 579404) (human, UniProt P01584 117-269) (assay: cell-based or functional assay).

| MRC5 IC50 | Binder |
| --- | --- |
| 0.033 nM | B1 |
| 0.054 nM | B2 |
| 0.031 nM | B3 |
| 0.049 nM | B4 |
| 0.063 nM | B5 |
| 0.041 nM | B6 |
| 0.033 nM | B7 |
| 0.032 nM | B8 |
